The values that follow come from the RNAGym collection of RNA variant scans (doi:10.7554/elife.80360).

B1: Hairpin Ribozyme (parent)
chain: GUCCUCUUUCACGUGCGCGUGAAAGAGAGAAGUGAACCAGAGAAACACACGUUGUGGUAUAUUACCUGGUA

Variants of B1 are the subject of this series. Description: self-cleavage, relative activity (ratio to wild type); higher = more cleavage; co-transcriptional.
As for G29U A30U, the self-cleavage is 0.176.

In the case of G29U A30G, the self-cleavage amounted to 0.189.

Turning to A30G A43U, the self-cleavage stood at 0.221.

On to A31C A47C, for which the self-cleavage worked out at 0.0953.

On to A31C A47U, for which the self-cleavage is 0.192.

Regarding G29U U33A, the self-cleavage was found to be 0.169.

In the case of G29U U33C, the self-cleavage came to 0.165.

Turning to G29A A43C, the self-cleavage worked out at 0.215.

Consider G29U A39C, for which the self-cleavage was found to be 0.174.

Regarding A30G A49G, the self-cleavage was 0.0332.

Turning to A30G A49C, the self-cleavage is 0.0806.

With A30G A49U, the self-cleavage was determined as 0.0894.

For A30U U60G, the self-cleavage came out at 0.0766.

For the variant A30U U60C, the self-cleavage is 0.306.

With G29U U58C, the self-cleavage is 0.18.

For A30C U52G, the self-cleavage is 0.113.

Take A31C G40U: the self-cleavage stood at 0.0621.

For A31C G40A, the self-cleavage amounted to 0.131.

As for A30G A61G, the self-cleavage worked out at 0.224.

In the case of G29A G56C, the self-cleavage is 0.166.

Regarding A28U G34A, the self-cleavage was 0.873.

As to G29A A44U, the self-cleavage was 0.226.

For the variant A30C U62G, the self-cleavage was 0.134.

For the variant G29C A44G, the self-cleavage came out at 0.243.

For the variant A30C C66G, the self-cleavage came to 0.248.

In the case of G29A U62A, the self-cleavage came to 0.123.

Consider G29A U70G, for which the self-cleavage came to 0.182.

As to G29A U70A, the self-cleavage was 0.0755.

On to G29A U70C, for which the self-cleavage is 0.171.

As for A30G A45U, the self-cleavage amounted to 0.177.

Take G29C C48U: the self-cleavage came to 0.203.

Consider G29U U62G, for which the self-cleavage came out at 0.0909.

As to G29U A64U, the self-cleavage came out at 0.14.

In the case of A30C C65G, the self-cleavage was determined as 0.166.

As to G29U G51C, the self-cleavage came to 0.167.

In the case of A30U C66U, the self-cleavage was 0.083.

A30U A36G: the self-cleavage amounted to 0.248.

As for A30U A36C, the self-cleavage was found to be 0.0422.

As for G29A A41U, the self-cleavage was found to be 0.156.

Regarding G29U C37A, the self-cleavage was determined as 0.163.

For A31C C37G, the self-cleavage came to 0.146.

Turning to A31G A64U, the self-cleavage was 0.215.

With A30G C66G, the self-cleavage was 0.184.

Regarding A30G C66A, the self-cleavage came to 0.192.

With G29U U67G, the self-cleavage stood at 0.132.

G29U U67A: the self-cleavage amounted to 0.0852.

For the variant A30G U60A, the self-cleavage was found to be 0.125.

On to A30G U60G, for which the self-cleavage was found to be 0.158.

For the variant G29U U60C, the self-cleavage was determined as 0.107.

As to G29C A59U, the self-cleavage is 0.207.

G29C A41C: the self-cleavage is 0.0573.

For G29C A41G, the self-cleavage was found to be 0.142.

With G29C A35U, the self-cleavage was 0.0473.

In the case of G29C A35C, the self-cleavage came out at 0.104.

As for A30G U58A, the self-cleavage is 0.0366.

For the variant A30G U58G, the self-cleavage was 0.19.

In the case of A30U G56C, the self-cleavage came out at 0.15.

As for A30C G34A, the self-cleavage came to 0.0999.

Take A31G C50A: the self-cleavage was 0.146.

Take A28U C65A: the self-cleavage turned out to be 0.497.

As for A30C A35C, the self-cleavage amounted to 0.181.

For the variant A30U C50U, the self-cleavage is 0.0896.

As for A30U C50A, the self-cleavage is 0.221.

In the case of A31C A49C, the self-cleavage was determined as 0.149.

In the case of A31C A49U, the self-cleavage was 0.151.

With A30U A45G, the self-cleavage was determined as 0.236.

Take A30U A45U: the self-cleavage came to 0.129.

For the variant A30C G57C, the self-cleavage turned out to be 0.0882.

In the case of A30C G57A, the self-cleavage was 0.158.

As for G29C U67C, the self-cleavage is 0.0789.

For A30U U55C, the self-cleavage stood at 0.179.

Take A28U U70C: the self-cleavage came out at 0.394.

G29C G34U: the self-cleavage stood at 0.0954.

On to G29C G34A, for which the self-cleavage came out at 0.158.

A30G C50G: the self-cleavage was determined as 0.177.

As to A30U C37A, the self-cleavage was 0.0959.

In the case of A30U C37G, the self-cleavage amounted to 0.0899.

As for G29A G32C, the self-cleavage came to 0.106.

Take A30C A45C: the self-cleavage was 0.126.

A30U C65A: the self-cleavage was determined as 0.14.

For G29C U55C, the self-cleavage stood at 0.127.

As for G29U C48G, the self-cleavage was found to be 0.096.

Take A30C A41U: the self-cleavage was determined as 0.364.

On to G29C G32C, for which the self-cleavage came out at 0.128.

As to G29C G32U, the self-cleavage amounted to 0.121.

With G29C G32A, the self-cleavage worked out at 0.167.

With A30G C37U, the self-cleavage was 0.136.

As for A31C A43C, the self-cleavage was determined as 0.25.

Regarding A31C A43G, the self-cleavage was determined as 0.107.

For A31C U52C, the self-cleavage amounted to 0.196.

Take A31C U52A: the self-cleavage is 0.28.

Turning to G29C G42A, the self-cleavage is 0.13.

As to G29C G42U, the self-cleavage turned out to be 0.11.

On to G29C A49C, for which the self-cleavage was found to be 0.159.

G29C U58G: the self-cleavage was 0.077.

As to G29C U58A, the self-cleavage turned out to be 0.213.

With A30U A59C, the self-cleavage was determined as 0.153.

In the case of G29A C37A, the self-cleavage stood at 0.107.

As to G29A C37U, the self-cleavage was determined as 0.134.

Take G29A C37G: the self-cleavage was determined as 0.103.

Take A31G A44C: the self-cleavage was determined as 0.188.

For G29U G34A, the self-cleavage was determined as 0.0892.

Turning to G29A C38A, the self-cleavage was found to be 0.108.

As to A30C G68U, the self-cleavage was found to be 0.141.

Consider A30C G68C, for which the self-cleavage was found to be 0.172.

For A31C C48A, the self-cleavage is 0.115.

Regarding A31C C48G, the self-cleavage was 0.103.

As for A31G A41U, the self-cleavage was 1.37.

On to A31G A41G, for which the self-cleavage was determined as 0.712.

As to A31C U33C, the self-cleavage turned out to be 0.18.

A28U U52A: the self-cleavage amounted to 0.423.

In the case of A28U U52C, the self-cleavage stood at 0.768.

On to A30G G69U, for which the self-cleavage is 0.0631.

As to G29C A30C, the self-cleavage was 0.0921.

With A31G G42U, the self-cleavage is 0.19.

For A31G G42A, the self-cleavage was found to be 0.19.

Turning to G29U C46G, the self-cleavage was 0.182.

With G29A C66A, the self-cleavage is 0.139.

On to A30G U33C, for which the self-cleavage worked out at 0.0632.

Consider G29U A43U, for which the self-cleavage is 0.215.

In the case of A31C A41G, the self-cleavage was determined as 0.102.

Regarding A31C A41U, the self-cleavage came to 0.109.

In the case of G29U G32C, the self-cleavage is 0.105.

Take G29A G51C: the self-cleavage was determined as 0.216.

With A30G A64C, the self-cleavage is 0.0804.

For the variant A30G A64G, the self-cleavage came out at 0.141.

As to A30G A64U, the self-cleavage came to 0.159.

A30G A39U: the self-cleavage amounted to 0.138.

With G29C G68A, the self-cleavage stood at 0.0962.

In the case of A31C G69U, the self-cleavage was 0.0958.

Consider A31G A43C, for which the self-cleavage is 0.0574.

In the case of A31G A43G, the self-cleavage is 0.207.

Consider A31C A64C, for which the self-cleavage came to 0.134.

With G29A A49U, the self-cleavage amounted to 0.122.

For A28U U62C, the self-cleavage was determined as 0.272.

As to A28U U62A, the self-cleavage turned out to be 0.0878.

As to A28U U62G, the self-cleavage came out at 0.0982.

On to G29C C50A, for which the self-cleavage was found to be 0.167.

For the variant A30U A31G, the self-cleavage turned out to be 0.143.

For the variant G29A A31C, the self-cleavage was determined as 0.129.

As to A31C C38U, the self-cleavage stood at 0.131.

With A30G U63C, the self-cleavage came to 0.185.

Consider A30G U63A, for which the self-cleavage worked out at 0.0503.

Regarding A30G U63G, the self-cleavage was found to be 0.101.

On to A31C A45U, for which the self-cleavage stood at 0.0614.

As for A31C A45G, the self-cleavage was found to be 0.0362.

For the variant A31G G51C, the self-cleavage turned out to be 0.495.

Regarding A30G A31C, the self-cleavage was determined as 0.111.

On to A30G A31U, for which the self-cleavage is 0.125.

Regarding A31G G57C, the self-cleavage is 0.121.

On to A31G G57A, for which the self-cleavage worked out at 0.0901.

With G29U A71U, the self-cleavage is 0.185.

As to G29U A71G, the self-cleavage is 0.171.

Regarding A30C A43G, the self-cleavage is 0.

As to G29U A35U, the self-cleavage worked out at 0.117.

For A30G G40U, the self-cleavage turned out to be 0.0805.

Turning to A30C U60A, the self-cleavage came out at 0.12.

Regarding A30C C50G, the self-cleavage worked out at 0.142.

As for A28U G57U, the self-cleavage came out at 0.235.

As for A30G A47C, the self-cleavage stood at 0.152.

On to A30G A47G, for which the self-cleavage amounted to 0.0575.

For A30U U52A, the self-cleavage stood at 0.158.

For the variant G29A G57U, the self-cleavage came to 0.0366.

For the variant G29A G57A, the self-cleavage worked out at 0.141.

On to G29A G34U, for which the self-cleavage was determined as 0.131.

Consider A30G G34U, for which the self-cleavage worked out at 0.932.

In the case of A30C A71G, the self-cleavage came out at 0.247.
